From FireProtDB (doi:10.1021/bi00252a018)

B1: Subtilisin inhibitor, P01006 (parent)
chain: MRNTGAGPSPSVSRPPPSAAPLSGAALAAPGDAPSALYAPSALVLTVGKGVSATTAAPERAVTLTCAPGPSGTHPAAGSACADLAAVGGDLNALTRGEDVMCPMVYDPVLLTVDGVWQGKRVSYERVFSNECEMNAHGSSVFAF

Variants of: B1
Conditions: Streptomyces albogriseolus; pH 2.9; Thermal; DSC; glycine 25 mM; reversible: yes (70-85%); structure 3SSI; whole UniProt chain shown

Variant	Tm	change of melting temperature, mutant - wild type (higher = more stable)
MRNTGAGPSPSVSRPPPSAAPLSGAALAAPGDAPSALYAPSALVLTVGKGVSATTAAPERAVTLTCAPGPSGTHPAAGSACADLAAVGGDLNALTRGEDVMCPMVYDPVLLTVNGVWQGKRVSYERVFSNECEMNAHGSSVFAF	42.3 °C	-2.17 °C

Same assay, conditions: Streptomyces albogriseolus; pH 2.94; Thermal; DSC; glycine 25 mM; reversible: yes (70-85%); structure 3SSI; whole UniProt chain shown

Variant	Tm	change of melting temperature, mutant - wild type (higher = more stable)
MRNTGAGPSPSVSRPPPSAAPLSGAALAAPGDAPSALYAPSALVLTVGKGVSATTAAPERAVTLTCAPGPSGTHPAAGSACADLAAVGGDLNALTRGEDVMCPMVYDPVLLTVNGVWQGKRVSYERVFSNECEMNAHGSSVFAF	44.8 °C	0.88 °C

Same assay, conditions: Streptomyces albogriseolus; pH 2.98; Thermal; DSC; glycine 25 mM; reversible: yes (70-85%); structure 3SSI; whole UniProt chain shown

Variant	Tm	change of melting temperature, mutant - wild type (higher = more stable)
MRNTGAGPSPSVSRPPPSAAPLSGAALAAPGDAPSALYAPSALVLTVGKGVSATTAAPERAVTLTCAPGPSGTHPAAGSACADLAAVGGDLNALTRGEDVMCPMVYDPVLLTVNGVWQGKRVSYERVFSNECEMNAHGSSVFAF	45.1 °C	-0.2 °C

Same assay, conditions: Streptomyces albogriseolus; pH 3.04; Thermal; DSC; glycine 25 mM; reversible: yes (70-85%); structure 3SSI; whole UniProt chain shown

Variant	Tm	change of melting temperature, mutant - wild type (higher = more stable)
MRNTGAGPSPSVSRPPPSAAPLSGAALAAPGDAPSALYAPSALVLTVGKGVSATTAAPERAVTLTCAPGPSGTHPAAGSACADLAAVGGDLNALTRGEDVMCPMVYDPVLLTVNGVWQGKRVSYERVFSNECEMNAHGSSVFAF	46.3 °C	-1.29 °C

Same assay, conditions: Streptomyces albogriseolus; pH 3.07; Thermal; DSC; glycine 25 mM; reversible: yes (70-85%); structure 3SSI; whole UniProt chain shown

Variant	Tm	change of melting temperature, mutant - wild type (higher = more stable)
MRNTGAGPSPSVSRPPPSAAPLSGAALAAPGDAPSALYAPSALVLTVGKGVSATTAAPERAVTLTCAPGPSGTHPAAGSACADLAAVGGDLNALTRGEDVMCPMVYDPVLLTVNGVWQGKRVSYERVFSNECEMNAHGSSVFAF	47.3 °C	-1.43 °C

Same assay, conditions: Streptomyces albogriseolus; pH 3.15; Thermal; DSC; glycine 25 mM; reversible: yes (70-85%); structure 3SSI; whole UniProt chain shown

Variant	Tm	change of melting temperature, mutant - wild type (higher = more stable)
MRNTGAGPSPSVSRPPPSAAPLSGAALAAPGDAPSALYAPSALVLTVGKGVSATTAAPERAVTLTCAPGPSGTHPAAGSACADLAAVGGDLNALTRGEDVMCPMVYDPVLLTVNGVWQGKRVSYERVFSNECEMNAHGSSVFAF	50.2 °C	-1.03 °C

Same assay, conditions: Streptomyces albogriseolus; pH 3.16; Thermal; DSC; glycine 25 mM; reversible: yes (70-85%); structure 3SSI; whole UniProt chain shown

Variant	Tm	change of melting temperature, mutant - wild type (higher = more stable)
MRNTGAGPSPSVSRPPPSAAPLSGAALAAPGDAPSALYAPSALVLTVGKGVSATTAAPERAVTLTCAPGPSGTHPAAGSACADLAAVGGDLNALTRGEDVMCPMVYDPVLLTVNGVWQGKRVSYERVFSNECEMNAHGSSVFAF	49.9 °C	-2.28 °C

Same assay, conditions: Streptomyces albogriseolus; pH 3.19; Thermal; DSC; glycine 25 mM; reversible: yes (70-85%); structure 3SSI; whole UniProt chain shown

Variant	Tm	change of melting temperature, mutant - wild type (higher = more stable)
MRNTGAGPSPSVSRPPPSAAPLSGAALAAPGDAPSALYAPSALVLTVGKGVSATTAAPERAVTLTCAPGPSGTHPAAGSACADLAAVGGDLNALTRGEDVMCPMVYDPVLLTVNGVWQGKRVSYERVFSNECEMNAHGSSVFAF	51.4 °C	-1.95 °C

Same assay, conditions: Streptomyces albogriseolus; pH 3.2; Thermal; DSC; glycine 25 mM; reversible: yes (70-85%); structure 3SSI; whole UniProt chain shown

Variant	Tm	change of melting temperature, mutant - wild type (higher = more stable)
MRNTGAGPSPSVSRPPPSAAPLSGAALAAPGDAPSALYAPSALVLTVGKGVSATTAAPERAVTLTCAPGPSGTHPAAGSACADLAAVGGDLNALTRGEDVMCPMVYDPVLLTVNGVWQGKRVSYERVFSNECEMNAHGSSVFAF	51.3 °C	-2.3 °C

Same assay, conditions: Streptomyces albogriseolus; pH 3.21; Thermal; DSC; glycine 25 mM; reversible: yes (70-85%); structure 3SSI; whole UniProt chain shown

Variant	Tm	change of melting temperature, mutant - wild type (higher = more stable)
MRNTGAGPSPSVSRPPPSAAPLSGAALAAPGDAPSALYAPSALVLTVGKGVSATTAAPERAVTLTCAPGPSGTHPAAGSACADLAAVGGDLNALTRGEDVMCPMVYDPVLLTVNGVWQGKRVSYERVFSNECEMNAHGSSVFAF	51.3 °C	-2.07 °C

Same assay, conditions: Streptomyces albogriseolus; pH 7; Thermal; DSC; phosphate 25 mM; reversible: yes (70-85%); structure 3SSI; whole UniProt chain shown

Variant	Tm	change of melting temperature, mutant - wild type (higher = more stable)
MRNTGAGPSPSVSRPPPSAAPLSGAALAAPGDAPSALYAPSALVLTVGKGVSATTAAPERAVTLTCAPGPSGTHPAAGSACADLAAVGGDLNALTRGEDVMCPMVYDPVLLTVNGVWQGKRVSYERVFSNECEMNAHGSSVFAF	83.1 °C	1.07 °C

Same assay, conditions: Streptomyces albogriseolus; pH 9.5; Thermal; DSC; glycine 25 mM; reversible: yes (70-85%); structure 3SSI; whole UniProt chain shown

Variant	Tm	change of melting temperature, mutant - wild type (higher = more stable)
MRNTGAGPSPSVSRPPPSAAPLSGAALAAPGDAPSALYAPSALVLTVGKGVSATTAAPERAVTLTCAPGPSGTHPAAGSACADLAAVGGDLNALTRGEDVMCPMVYDPVLLTVNGVWQGKRVSYERVFSNECEMNAHGSSVFAF	82.6 °C	1.88 °C

Same assay, conditions: Streptomyces albogriseolus; pH 9.75; Thermal; DSC; glycine 25 mM; reversible: yes (70-85%); structure 3SSI; whole UniProt chain shown

Variant	Tm	change of melting temperature, mutant - wild type (higher = more stable)
MRNTGAGPSPSVSRPPPSAAPLSGAALAAPGDAPSALYAPSALVLTVGKGVSATTAAPERAVTLTCAPGPSGTHPAAGSACADLAAVGGDLNALTRGEDVMCPMVYDPVLLTVNGVWQGKRVSYERVFSNECEMNAHGSSVFAF	82.3 °C	2.06 °C
